The target in assay [1] is Rnq1 preformed fibers (sonicated seed) (Saccharomyces cerevisiae) (UniProt P25367). Kind of assay: cell-based or functional assay.
Assay [2] deals with NM, the N-terminal and middle region of Saccharomyces cerevisiae Sup35 (soluble, unpolymerized) (Saccharomyces cerevisiae) (UniProt P05453). Nature of the assay: cell-based or functional assay.
The target in assay [3] is biotinylated NM^K184C seed (fibers) (Saccharomyces cerevisiae) (UniProt P05453). Kind of assay: capture of biotinylated seed (50% w/w) on Streptavidin-coated Dynabeads, SDS wash, scintillation counting.
Chain of biotinylated NM^K184C seed (fibers) (Saccharomyces cerevisiae) (P05453 1-253 K184C): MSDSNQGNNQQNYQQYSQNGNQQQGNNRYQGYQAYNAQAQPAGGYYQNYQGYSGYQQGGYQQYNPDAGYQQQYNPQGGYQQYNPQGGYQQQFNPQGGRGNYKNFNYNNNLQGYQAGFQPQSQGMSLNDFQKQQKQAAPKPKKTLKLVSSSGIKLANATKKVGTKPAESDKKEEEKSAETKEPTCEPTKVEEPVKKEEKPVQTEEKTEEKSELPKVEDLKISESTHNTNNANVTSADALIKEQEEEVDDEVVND

The substance “Rnq1 (purified recombinant, soluble) (from UniProt P25367 1-405)” yielded a lag time of Thioflavin T fluorescence with 2% preformed fibers in assay [1] of 4.3 h.

In assay [2], “Hsp104 (yeast protein-remodeling factor, AAA+ family), His-tag removed (from UniProt P31539 1-908) (enzyme)” registered an inhibition of NM fibrillization, no nucleotide of 7.6 µM; an inhibition of NM fibrillization, with ADP of 3.1 µM; an inhibition of NM fibrillization, with AMP-PNP of 0.2 µM; an inhibition of NM fibrillization, with ATP hydrolysis of 0.1 µM.

“soluble NM^T158C-iodo[1-14C]acetamide (from UniProt P05453 1-253)” returned a fraction of seed-bound NM soluble in SDS at early time points in assay [3] of 50%.

The record behind these values is patent publication US20090280480A1.
